US20210130454A1 (BLUEFIN BIOMEDICINE, published 2021)

How the values were obtained:
[1] = biological target: T1, human SEZ6 on cells (293-SEZ6) (human, UniProt Q53EL9 20-994); experiment: flow cytometry on live 293-SEZ6 cells, Alexa Fluor 488 anti-human IgG secondary [continued), panel F]
T1 construct: whole, on cells; also called Seizure Protein 6 Homolog
T1 sequence (looked up): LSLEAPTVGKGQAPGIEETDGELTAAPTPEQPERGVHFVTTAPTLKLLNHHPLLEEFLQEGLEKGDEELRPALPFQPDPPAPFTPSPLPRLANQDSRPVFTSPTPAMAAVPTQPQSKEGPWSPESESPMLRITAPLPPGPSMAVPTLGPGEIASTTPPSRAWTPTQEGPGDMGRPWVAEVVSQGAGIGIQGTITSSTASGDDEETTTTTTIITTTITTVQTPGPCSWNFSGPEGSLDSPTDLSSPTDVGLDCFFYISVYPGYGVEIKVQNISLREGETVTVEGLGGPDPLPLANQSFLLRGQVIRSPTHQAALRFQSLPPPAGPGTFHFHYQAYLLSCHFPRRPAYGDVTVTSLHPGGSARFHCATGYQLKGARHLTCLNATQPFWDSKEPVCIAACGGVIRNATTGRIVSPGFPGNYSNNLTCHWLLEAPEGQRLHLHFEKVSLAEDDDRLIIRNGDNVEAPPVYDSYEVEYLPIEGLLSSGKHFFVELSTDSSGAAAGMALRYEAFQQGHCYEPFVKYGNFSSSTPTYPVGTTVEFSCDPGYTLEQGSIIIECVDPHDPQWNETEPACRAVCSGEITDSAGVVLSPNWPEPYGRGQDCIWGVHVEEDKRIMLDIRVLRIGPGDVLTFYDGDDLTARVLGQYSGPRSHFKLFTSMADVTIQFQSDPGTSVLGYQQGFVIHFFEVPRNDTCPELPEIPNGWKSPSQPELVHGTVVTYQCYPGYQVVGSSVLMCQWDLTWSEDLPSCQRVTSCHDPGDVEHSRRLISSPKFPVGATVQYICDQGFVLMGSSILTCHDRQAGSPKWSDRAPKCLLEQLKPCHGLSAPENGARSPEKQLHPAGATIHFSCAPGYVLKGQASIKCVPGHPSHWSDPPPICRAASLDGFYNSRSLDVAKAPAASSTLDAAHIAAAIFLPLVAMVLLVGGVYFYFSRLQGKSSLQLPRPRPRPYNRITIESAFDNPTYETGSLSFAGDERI

[2] = biological target: T2, human SEZ6L2 on cells (293-SEZ6L2, HEK 293 cells transfected with human SEZ6L2, and SEZ6L2-expressing tumor … (human, UniProt Q6UXD5 28-910)); experiment: flow cytometry on live 293-SEZ6L2 cells, primary antibody 1 ug/ml, Alexa Fluor 488 anti-human IgG secondary [continued), panel F]
T2 construct: Tumor cell lines express the endogenous protein; also called hSEZ6L2

[3] = biological target: T3, human SEZ6L on cells (293-SEZ6L) (human, UniProt Q9BYH1 29-1024); experiment: flow cytometry on live 293-SEZ6L cells, Alexa Fluor 488 anti-human IgG secondary [continued), panel F]
T3 construct: whole, on cells; also called Seizure 6-like Protein
T3 sequence (looked up): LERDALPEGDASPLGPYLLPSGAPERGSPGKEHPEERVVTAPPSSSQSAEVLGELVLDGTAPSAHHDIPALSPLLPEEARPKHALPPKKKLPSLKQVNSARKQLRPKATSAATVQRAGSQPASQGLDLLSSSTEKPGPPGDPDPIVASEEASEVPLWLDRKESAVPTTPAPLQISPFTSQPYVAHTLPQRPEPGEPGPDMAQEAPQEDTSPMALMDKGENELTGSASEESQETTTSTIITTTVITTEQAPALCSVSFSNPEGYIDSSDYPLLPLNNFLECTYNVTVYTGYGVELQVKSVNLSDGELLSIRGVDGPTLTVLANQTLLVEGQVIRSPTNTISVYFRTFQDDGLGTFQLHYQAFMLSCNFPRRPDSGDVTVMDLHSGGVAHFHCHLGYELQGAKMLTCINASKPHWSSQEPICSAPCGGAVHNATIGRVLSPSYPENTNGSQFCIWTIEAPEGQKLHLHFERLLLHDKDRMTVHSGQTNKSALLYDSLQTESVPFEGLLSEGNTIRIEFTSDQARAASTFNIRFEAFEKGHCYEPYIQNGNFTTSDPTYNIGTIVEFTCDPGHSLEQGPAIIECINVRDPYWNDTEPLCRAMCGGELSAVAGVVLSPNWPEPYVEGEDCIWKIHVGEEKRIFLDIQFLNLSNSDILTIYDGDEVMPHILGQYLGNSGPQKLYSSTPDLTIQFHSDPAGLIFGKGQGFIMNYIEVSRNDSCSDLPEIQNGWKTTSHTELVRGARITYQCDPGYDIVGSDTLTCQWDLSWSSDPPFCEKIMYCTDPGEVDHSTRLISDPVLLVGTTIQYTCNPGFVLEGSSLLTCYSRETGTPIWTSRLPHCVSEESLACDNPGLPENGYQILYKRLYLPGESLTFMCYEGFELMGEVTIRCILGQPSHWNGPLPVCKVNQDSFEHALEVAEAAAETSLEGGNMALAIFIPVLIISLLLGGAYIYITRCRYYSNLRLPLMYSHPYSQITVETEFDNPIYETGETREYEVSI

[4] = biological target: T2, human SEZ6L2 on cells (293-SEZ6L2, HEK …); experiment: flow cytometry on live 293-SEZ6L2 cells, primary antibody 1 ug/ml, Alexa Fluor 488 anti-human IgG secondary [continued), panel G]
[5] = biological target: T1, human SEZ6 on cells (293-SEZ6); experiment: flow cytometry on live 293-SEZ6 cells, Alexa Fluor 488 anti-human IgG secondary [continued), panel G]
[6] = biological target: T3, human SEZ6L on cells (293-SEZ6L); experiment: flow cytometry on live 293-SEZ6L cells, Alexa Fluor 488 anti-human IgG secondary [continued), panel G]
[7] = biological target: T3, human SEZ6L on cells (293-SEZ6L); experiment: flow cytometry on live 293-SEZ6L cells, Alexa Fluor 488 anti-human IgG secondary [continued), panel H]
[8] = biological target: T1, human SEZ6 on cells (293-SEZ6); experiment: flow cytometry on live 293-SEZ6 cells, Alexa Fluor 488 anti-human IgG secondary [continued), panel H]
[9] = biological target: T2, human SEZ6L2 on cells (293-SEZ6L2, HEK …); experiment: flow cytometry on live 293-SEZ6L2 cells, primary antibody 1 ug/ml, Alexa Fluor 488 anti-human IgG secondary [continued), panel H]
[10] = biological target: T3, human SEZ6L on cells (293-SEZ6L); experiment: flow cytometry on live 293-SEZ6L cells, Alexa Fluor 488 anti-human IgG secondary [panel A]
[11] = biological target: T1, human SEZ6 on cells (293-SEZ6); experiment: flow cytometry on live 293-SEZ6 cells, Alexa Fluor 488 anti-human IgG secondary [panel A]
[12] = biological target: T4, recombinant human SEZ6L2 (extracellular portion of human SEZ6L2 fused to six C-terminal histidine-tag repeats) (human, UniProt Q6UXD5 28-844); experiment: BLI (ForteBio Octet Red96), antibody on Protein A biosensors, recombinant target protein in solution
T4 construct: also called SEZ6L2-his; recombinant SEZ6L2

[13] = biological target: T5, recombinant cynomolgus monkey SEZ6L2 (cynomolgus monkey, UniProt G7Q0V6 28-844); experiment: as above
T5 construct: The construct is not described; also called cynomolgus monkey SEZL2

[14] = biological target: T1, human SEZ6 on cells (293-SEZ6); experiment: flow cytometry on live 293-SEZ6 cells, Alexa Fluor 488 anti-human IgG secondary [continued), panel I]
[15] = biological target: T3, human SEZ6L on cells (293-SEZ6L); experiment: flow cytometry on live 293-SEZ6L cells, Alexa Fluor 488 anti-human IgG secondary [continued), panel I]
[16] = biological target: T2, human SEZ6L2 on cells (293-SEZ6L2, HEK …); experiment: immunofluorescence and flow cytometry on HEK 293 cells transfected with human SEZ6L2 against untransfected cells

T2 sequence (Q6UXD5 28-910): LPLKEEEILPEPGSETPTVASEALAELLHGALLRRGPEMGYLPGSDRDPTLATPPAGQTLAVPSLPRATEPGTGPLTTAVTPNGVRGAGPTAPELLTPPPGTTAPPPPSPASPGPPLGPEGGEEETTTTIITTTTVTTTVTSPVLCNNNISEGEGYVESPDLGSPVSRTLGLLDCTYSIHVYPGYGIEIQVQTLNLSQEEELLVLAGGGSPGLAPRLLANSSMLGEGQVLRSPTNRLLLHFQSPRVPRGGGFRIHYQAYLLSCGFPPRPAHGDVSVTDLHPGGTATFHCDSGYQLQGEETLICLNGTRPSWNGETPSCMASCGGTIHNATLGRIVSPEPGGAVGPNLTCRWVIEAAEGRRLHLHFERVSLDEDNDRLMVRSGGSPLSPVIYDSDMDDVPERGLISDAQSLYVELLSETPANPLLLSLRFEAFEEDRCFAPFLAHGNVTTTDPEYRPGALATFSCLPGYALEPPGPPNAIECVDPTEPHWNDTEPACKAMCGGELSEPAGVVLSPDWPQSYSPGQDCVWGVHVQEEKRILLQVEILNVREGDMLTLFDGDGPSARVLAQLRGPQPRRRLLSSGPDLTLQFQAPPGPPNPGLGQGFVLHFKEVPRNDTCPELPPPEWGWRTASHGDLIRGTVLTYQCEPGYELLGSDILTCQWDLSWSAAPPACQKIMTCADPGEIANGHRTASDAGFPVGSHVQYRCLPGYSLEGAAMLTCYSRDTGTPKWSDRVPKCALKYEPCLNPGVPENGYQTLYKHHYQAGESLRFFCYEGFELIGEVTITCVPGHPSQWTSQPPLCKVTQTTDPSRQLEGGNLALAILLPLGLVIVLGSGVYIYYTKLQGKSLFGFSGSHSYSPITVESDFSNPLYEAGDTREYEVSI
T4 sequence (Q6UXD5 other isoform, or with tags, fused parts or gaps): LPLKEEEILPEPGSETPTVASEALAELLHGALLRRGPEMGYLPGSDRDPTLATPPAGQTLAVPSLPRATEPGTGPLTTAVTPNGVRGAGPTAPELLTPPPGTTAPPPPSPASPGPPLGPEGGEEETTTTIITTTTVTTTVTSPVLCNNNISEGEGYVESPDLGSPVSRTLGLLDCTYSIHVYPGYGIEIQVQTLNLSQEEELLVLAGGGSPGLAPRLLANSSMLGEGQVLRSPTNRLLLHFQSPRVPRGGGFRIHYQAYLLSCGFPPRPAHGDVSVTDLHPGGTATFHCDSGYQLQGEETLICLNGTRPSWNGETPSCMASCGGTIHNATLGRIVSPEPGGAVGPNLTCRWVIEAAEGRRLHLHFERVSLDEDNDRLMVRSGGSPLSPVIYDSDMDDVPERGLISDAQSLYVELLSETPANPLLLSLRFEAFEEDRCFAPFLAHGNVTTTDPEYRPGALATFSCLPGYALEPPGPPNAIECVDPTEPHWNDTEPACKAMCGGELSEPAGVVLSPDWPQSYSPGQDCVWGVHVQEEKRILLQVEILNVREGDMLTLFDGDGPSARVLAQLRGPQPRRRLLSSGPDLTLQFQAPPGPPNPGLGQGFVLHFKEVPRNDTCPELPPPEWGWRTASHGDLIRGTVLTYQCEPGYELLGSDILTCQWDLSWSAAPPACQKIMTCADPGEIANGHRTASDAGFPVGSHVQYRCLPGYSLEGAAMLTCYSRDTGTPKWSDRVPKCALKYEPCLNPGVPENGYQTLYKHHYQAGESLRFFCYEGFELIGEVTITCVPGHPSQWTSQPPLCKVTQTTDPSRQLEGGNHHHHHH

B1: human anti-SEZ6L2 antibody 3B1 (antibody, V domains shown)
VH: QVQLVESGGGVVQPGRSLRLTCVVSGFAFSSYGMHWVRQAPGKGLEWVAVIWYDGSNKYYADSVKGRFTISRDNSKNTLYLQMNSLRAEDTAVYYCASLDYYGSGSRFDPWGQGTLVTVSS
VL: not shown
notes: Fully human antibody from H2L2 mice
B1: no binding (tested: 1 ug/ml) [1]; binds [2]; no binding (tested: 1 ug/ml) [3].

B2: human anti-SEZ6L2 antibody 3B3 (antibody, V domains shown)
VH: EVQLVESGGGLVQPGGSLRLSCAASGFTFSSYWMSWVRQAPGKGLEWVANIKQDGSEKYYVDSVKGRFTISRDNAKNSLYLQMNSLRAEDTAVYYCARGGGSYAFDYWGQGTLVTVSS
VL: not shown
notes: as for B1
B2: binds [4]; no binding (tested: 1 ug/ml) [5]; no binding (tested: 1 ug/ml) [6].

B3: human anti-SEZ6L2 antibody 3B6 (antibody, V domains shown)
VH: QVQLVQSGAEVKKPGASVKVSCKASGYTFTAYYMHWVRQAPGQGLEWMGWINPNSGGTNYAQKFQGRVTMTRDTSIDTAYLDLSRLRSDDTAVYYCAKDSGYDWYFDIWGRGTLVTVSS
VL: EIVLTQSPATLSLSPGERATLSCRASQNISSYLAWYQQKPGQAPRLLIYDASNRATGIPARFSGSGSGTDFTLTISSLEPEDFAVFYCQQHSNWPPLTFGGGTKVEIKR
notes: as for B1
B3: no binding (tested: 1 ug/ml) [7]; no binding (tested: 1 ug/ml) [8]; binds [9].

B4: human anti-SEZ6L2 antibody 1A1 (antibody, V domains shown)
VH: QVQLVQSGAEVKKPGASVKVSCKASGYTFTGYYMFWVRQAPGQGLEWLGWINPNSGGTDYAQKFQGRVTMTRDTSISTAYMELSRLRSDDTAVYYCARDSGYDWFFDYWGQGTLVTVSS
VL: not shown
notes: Fully human antibody from H2L2 mice, expressed recombinantly; it was captured on Protein A and detected with anti-human IgG
In the case of B4, the binding result [10] is reported as “no binding (tested: 1 ug/ml)”, the binding result [11] is reported as “no binding (tested: 1 ug/ml)” and the Kd [12] is reported as 1 nM. For the same binder, the Kd [13] was 1 nM.

B5: humanized anti-SEZ6L2 antibody 2E4 (antibody, human IgG1, V domains shown)
VH: EVKLVESGGVLVKPGGSLRLSCAASGFTFSKYAMSWVRQAPGKGLEWVSTISSGGSYTYYPDSVKGRFTISRDNARNSLYLQMNSLRAEDTAIYYCTREGGYDEGYAMDYWGQGTTVTVSS
VL: DIVMTQSPDSLAVSLGERATINCRSSQSLVHSYGNTYLHWYQQKPGQPPKLLIYKVSNRFSGVPDRFSGSGSGTDFTLTISSLQAEDVAVYFCSQSTHFRTFGGGTKVEIKR
notes: also called 2E4:4D2
With B5 the binding result [14] was “no binding (tested: 1 ug/ml)”, the Kd [12] was 7 nM and the Kd [13] was 12 nM. B5: no binding (tested: 1 ug/ml) [15].

B6: murine anti-SEZ6L2 antibody mu3E2 (antibody, V domains shown)
VH: EVLLVESGGRLVQPKGSLKLSCAASGFSFNTITMNWVRQAPGKGLEWVARIRSKSNNYATYYADAVKDRFTISRDDSQSMLYLQMNNLKTEDTAMYFCVRGIFSGYVYAMDYWGQGTTLTVSS
VL: DVVMTQSPLSLPVSVGDQASISCRSSQSIVHSNGNTYLEWYLQKPGQSPKVLIYKVSNRFSGVPDRFSGSGSGTDFTLKISRVEAEDLGVYYCFQGSHVPYTFGGGTKLEIK
notes: Mouse hybridoma antibody
B6: binds [16].

B7: murine anti-SEZ6L2 antibody mu2E4 (antibody, V domains shown)
VH: EVKLVESGGVLVKPGGSLKLSCAASGFTFSKYAMSWVRQTPEKRLEWVATISSGGSYTYYPDSVKGRFTISRDNARNTLYLQMSSLRSEDTAIYYCTREGGYDEGYAMDYWGQGTTLTVS
VL: DVVMTQTPLSLPVSLGDQASISCRSSQSLVHSYGNTYLHWYLQKPGQSPKLLIYKVSNRFSGVPDRFSGSGSGTDFTLKISRVEAEDLGVYFCSQSTHFRTFGGGTKLEIK
notes: Mouse hybridoma antibody
B7: binds [16].
